assay: soluble on expression in E. coli; label from the status in PepcDB or PDB records

Row | Sequence | soluble on expression in E. coli
1 | MMINRINLTDIRSFVLIARLGNFTKAAETLDVSRSHVSRQISSLEKQMGVTLLIRTTRTLRLTEAGKHFYHQCEQALHTIDQALLSAVDDVEKVQGEIKINCVGGYLGEVFLADIVNTFMQQYPDVSISLDFSSNRVDLIEEEFDIAFRMGSLEDSGFVAKKLLDIEMGTLASPKYLQQYGRPSHPKELQQHHCLTGSVRKWHFQSLVNKEHYDVSIKGNLQCKNGRVLVAGAIAGNGIIRVPLIYCQQELDDKKLVQVFEEWGIPTVDFSAIYHRDRYQPKRIRTFIDFVKQYSDSLFT | not soluble
2 | KRETDNGHDVFESFEQMEKTAFVIPSAYGYDIKGYHVAPHDTPNTIIICHGVTMNVLNSLKYMHLFLDLGWNVLIYDHRRHGQSGGKTTSYGFYEKDDLNKVVSLLKNKTNHRGLIGIHGESMGAVTALLYAGAHCSDGADFYIADCPFACFDEQLAYRLRAEYRLPSWPLLPIADFFLKLRGGYRAREVSPLAVIDKIEKPVLFIHSKDDDYIPVSSTERLYEKKRGPKALYIAENGEHAMSYTKNRHTYRKTVQEFLDNMNDSTE | not soluble
3 | MATFSISAMAAQCGVTTANIRSWERYGLLQPTKDEAGNRFYCIEDAIRIQHIIDALSKGFSLKEIKPALYGEETHCRSGWLFYQEEILAQCRKFEPAKLRKLLWRYGREIPPCIVIESILRPLRLWLSAGDDDARRFEKALLDTAIIEYATFQLSSVRKAPAGTMLIAAFSLNDPIELWLETIKYCSEGMRVEVIPWQAPMPDLLSTSFEHIVLWHDETLTPAQENLIQALKESGKFSLHVKNGSGLTLLPAVYRQHEMPESMQHVAPQIHANGYEKSGTAR | not soluble
4 | MNLESITVVLPTRNEAGNIGAFLASLPQAVHLIVVDASEDETPDIIQRERPARTQVLRRRSTITQARQLGAEAALTDWLLFTDADIVFPDGYFDALERVMDAAVVYGPKLSRDRFAAYYRWFGYGQQCSHWLGIPAATGSNLLVRKDALIAVGGFDPALVCNEDSELVWRIKRAGYRIRFEPSLPVYARDHRRLDSGLWRKTCHSVFRCALLYWDLMPARWRGADWGYWSPQQSGRAPGVSRVELEHHHHHH | not soluble
5 | MSLKLTPEAAGTFAIAPTPFHDDGKIDDVSIDRLTDFYAEVGCEGVTVLGILGEAPKLDAAEAEAVATRFIKRAKSMQVIVGVSAPGFAAMRRLARLSMDAGAAGVMIAPPPSLRTDEQITTYFRQATEAIGDDVPWVLQDYPLTLSVVMTPKVIRQIVMDSASCVMLKHEDWPGLEKITTLRGFQKDGSLRPLSILCGNGGLFLDFEMERGADGAMTGYCFPDMLVDVVKLSKAGQRDLAHNLFDAHLPLIRYEHQQGVGLSVRKYVLKKRGLLSSSAQRKPGASLTDTAREEVDYLLSRLARVDKRADFEPRTKAAEEGHHHHHH | soluble
6 | MGHHHHHHSHMAGAGVPGEATGRGAGGRRRKRPLQRGKPPYSYIALIAMAIAHAPERRLTLGGIYKFITERFPFYRDNPKKWQNSIRHNLTLNDCFLKIPREAGRPGKGNYWALDPNAEDMFESGSFLRRRKRFKRSDLST | soluble
7 | MGSDKIHHHHHHSDDREMDDGRWKASALRVPLQVSSAVIKQEVVTRLAPDPVPLTEGAIGIFLSGTEPESGQEDSGYKVIDNRKYVYSEGHWGPPTANDTIYLVGNDADVCAYYPYKDSYTDKTVIPLQSQDYVETEDIYYALNTMINGFTPAITFDMVHAYSLVELKISRENYFMPCEISKITLKNSNLIKKGTINIAVDGSIHSSETGNYDLTTVTDASPHTLSVGESYVCRVLMIPVPLKIERTDAEGGEFGLSVSLVIDGQQMLVEIPYSELGEFRQGEKYVIGLKIKGTEIVPTVKALEWEDEEVNGGNKYPVE | not soluble
8 | MSLDVTDAQAIADHWGRGDVFGLIVAALNQMAKPLDGLTVEELAPVDHFHSRGFPATVEFADRLPINAGEQILDIGCGLGGPARYMAKRFQCRVSGIDITGPFVEAANRLTALLHMEQQVEIAQGNGQRLPYPDSCFDGAYTQDVTMNVAERAGFFAEAYRVLKPGAFFALSEHGLGPQGKPHYPVPWSDDGTGAYLTAPAETRAILERTGFEAITVEDTGAKCVAGYGKVIERAEKGALPPLGLHLFMGESMVEKMRNAARNIEEGRTHPIQLICRKEGHHHHHH | soluble
9 | MGSDKIHHHHHHMRIFLVGMMGSGKSTIGKRISEVLDLQFIDMDEEIERREGRSVRRIFEEDGEEYFRLKEKELLKELVERDNVVVATGGGVVVDPENRELLKKEKTLFLYAPPEVLMERVTTENRPLLSEGKERIREIWEKRKQFYAEFRRIDTSRLNEWETTALVVLEALDEKEISTIEKPHLVKIILGGFKRVRNEELVFTTERVEKIYGRYLPENRLLFPDGEEVKTLEHVSRAYYELIRMDFPRGKTIAGVGGGALTDFTGFVASTFKRGVGLSFYPTTLLAQVDASVGGKNAIDFAGVKNVVGTFRMPDYVIIDPTVTLSMDEGRFEEGVVEAFKMTILSGRGVELFDEPEKIEKRNLRVLSEMVKISVEEKARIVMEDPYDMGLRHALNLGHTLGHVYEMLEGVPHGIAVAWGIEKETMYLYRKGIVPKETMRWIVEKVKQIVPIPVPSVDVEKARNLILNDKKILKGSRVRLPYVKEIGKIEFLEVDPLELLEVVD | not soluble
10 | MASASNKQLELWKQYADTKNPAIKEQLIIEYSNIVKYIAGRLSIYFGSNVEYDDLIGYGIFGLIDAIEKFDINKGVKFETYASLRIRGSIIDSIRELDWVPRSLRQKNKELEKVYAEIENELGRSASDKEVADKLGITVDELNKLLNEVNLSSMISLEEFLEQNYEIGVTTAPESRDEKPEGYIEMAELREILADAISKLPEKEKMVITLYYFGEVVK | soluble
11 | MSLEQYFKRFLGEENAYFDEIHKRAYSYDATKKHYLPDGVLFPRNEEDIARILKFCNENNIIVIPRGSGSGFTGGALAVNGGVVLAFEKHMNKILEIDLENLVAVVQPGVINIHLQKEVAKYGLFYPPDPASMEYSSLGGNVSENAGGMRAAKYGITKDYVMALRAVLPSGEIIRAGKRTIKDVAGYNLAGILIASEGSLAVLSELTLKLIPLPKFKKTAFAIFPSVKSAMNAVYKSLASGVSPVSMEFLDNLSIRAVESKFNKGLPIEAGAILIADVDGNVKEAIDEDLRNLEHYFLEAGASEFKIAKDEQETADIWFARRNCSQSIAMYGTLKLNEDITVPRSKLPTLLEGIDEISKKYGFKIPCFGHTGDGNVHTNVMVPDKNDKEQVKKGYEAVEEIFKLTVKLGGTLSGEHGIGLSKAPFMNLAFSEAEMNLMRNIKKAFDPNNILNPFKMGLEGHHHHHH | soluble
12 | MPVFVKLTGGSIGLQAGVQSSDVVLVFRNDRNLDNIVNGKFTLGADASVAAGPVGRNALAATDSELKAEIYSWSTARGLFAGIALDGAALQIDDSANLDVYGKGTTPRMIFEGRTAEPPSSDVIAFRDRLEEVTYTARNNLEHHHHHH | soluble
13 | MGSDKIHHHHHHVTSQAPVEVMTDIMTKFTSYIGKRLPTDIKEKLADLREAETNPMANVLFDSMAENQEAADKLNRPSCQDTGVIQYFITAGAKFPLLGELEEILRNATLGATKLGPLRHNAVEAFDEKNTGTNTGSRIPWLDWEIVPNDDGVIIDVYMAGGGCTLPGASTVLMPGQGYEGVVDFVFDVVTSRGINACPPLLIGVGVSTSAETAARLSKKAILRPVGSHHDNANAAKMETLLEDGLNELGIGPQGLTGNSSVMGVNIESSARHPSTIGVAVSTGCWAHRRGRIRFNADLSYEIVSHEGVVL | not soluble
14 | GQSLPSVSKEIRELSNRTEQQTSLSDRKESEAFALETVRMISDRTLYLFRLAEGRSWEADVRGRSWASRVLPIVHRLKHGGIPWKQYLSSDSLCMEARLYGKYDSVTGAYRRGVVSFRSDIPQRNKVDDLTALALLGENVYAEEFDFGNRQIFPNPIRREAEAFYTYRLDSLYEKDGITYRRIAFRGLSGLNHGTVTIDATHGQLAILEMRVMMKGVITESYRVELGEVEPGLFLPIGLSVVIDRNRLWASLHNGYSASISYPGEQLDKTVLPVYTPTDSSRYRLPDELPVAPVWAVRSSFGREDSSTYWKNVVVGRDHTLHQHVPWHRALAWGHKYRIGERWRLGNEGLVWALFYYNYADHLWLGQSLTAIYDMAPGIRWEIKPGLYYVTKRRKAVWTLDSKLYYSPPQRGLLQLSAGHRSFDLYSTRERIDQLTDLMMELLNGQGPTTRYDDKFVRLTNSIDLLPKLNVETSVMLAERNPLPHGET | not soluble

— the DeepSol protein solubility set
